Laboratory results as given in paper PMC2693429.

Columns and labels:
[1] = molecular target: Recombinant Very Low Density Lipoprotein Receptor (VLDLR) ligand binding region; test: SPR; VLDLR immobilised on a CM5 BIAcore chip (~2,000 response units, amine coupling); analytes in 10 mM Hepes pH 7.4, 150 mM NaCl, 1 mM CaCl2, 0.005% Tween-20 at 20 μL/min; regeneration 100 mM H3PO4; blank cell as reference; 1:1 binding model
[2] = molecular target: 6 × His-tagged PAI-2 lacking the intrahelical loop between C and D alpha-helices (PAI-2 ΔCD-loop), from pQE9 (human) (UniProt P05120); test: native MS; positive ion ESI-MS (Q-TOF); 10 μM protein in 10 mM ammonium acetate pH 6.8 with 0.1% formic acid; monomeric and dimeric species seen

Kd [1]	koff [1]	kon [1]	stoichiometry N [2]	Substance
4.34 nM	0.00136 s⁻¹	416000 M⁻¹ s⁻¹		uPA:PAI-2 ΔCD-loop complex (from UniProt P05120 1-415)
			2	6 × His-tagged PAI-2 lacking the intrahelical loop between C and D alpha-helices (PAI-2 ΔCD-loop), from pQE9 (from UniProt P05120 1-415) (natural protein)
4.81 nM	0.00144 s⁻¹	375000 M⁻¹ s⁻¹		uPA:PAI-2 wild-type complex (from UniProt P05120 1-415)
